Blank lines part the entries; values can stand above or below the molecule they belong to.
What was measured:
[1] = molecular target: human myostatin (GDF8) (human, UniProt O14793 267-375); test: cell-based or functional assay
[2] = molecular target: T1, TGF-β1 (UniProt P01137 279-390); test: cell-based or functional assay
[3] = molecular target: TGF-β1 or -β3; test: SPR (Biacore) solution competition: binder pre-incubated with 5 nM TGF-β (β1 or β3, isoform not named on the sheet), injected over immobilised 1D11 anti-TGF-β antibody; plateau response measures free TGF-β
[4] = molecular target: T2, TGF-β2 (UniProt P61812 303-414); test: SPR (Biacore), 100 nM injected over immobilised TGF-β2
T2 sequence (looked up): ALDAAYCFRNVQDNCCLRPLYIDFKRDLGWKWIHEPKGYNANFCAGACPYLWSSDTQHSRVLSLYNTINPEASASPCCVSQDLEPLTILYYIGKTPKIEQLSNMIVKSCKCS

[5] = molecular target: T1, TGF-β1; test: SPR indirect binding assay: binder titrated against 5 nM TGF-β1, free TGF-β1 measured on the 1D11 surface
Description: (§1) SPR data was generated using a Biacore 3000 instrument (G.E. Healthcare Inc.) using HBS as running buffer. […] A twenty-fold stock concentration of TGF-β (100 nM in 10 mM acetic acid) was used. […] Blank injection samples were made from 10 μl 10 mM acetic acid mixed with 190 uL HBS. […] All sensogram analysis was carried out using Biacore BiaEvaluation software v4.1 (G.E. Healthcare Inc.).

[6] = molecular target: T1, TGF-β1; test: SPR (Biacore) solution competition: binder pre-incubated with 5 nM TGF-β1, injected over immobilised 1D11 anti-TGF-β antibody; plateau response measures free TGF-β1
Description: as §1

[7] = molecular target: T1, TGF-β1; test: SPR (Biacore) solution competition: trap coinjected with 5 nM TGF-β1 over immobilised 1D11 anti-TGF-β antibody; plateau response measures free TGF-β1

IC50, neutralization of myostatin in A204 cells with (CAGA)12-luciferase reporter [1]: 0.38 nM
Molecule: ActRIIB monomer (receptor)

IC50, inhibition of TGF-β signaling in Mv1Lu luciferase reporter cells [2]: 0.58 nM
IC50 [3]: 7.6 nM
B1: Prototype (TβRII)^2 (designed binder)
chain: TIPPEQKLISEEDLLHVQKSVNNDMIVTDNNGAVKFPQLCKFCDVRFSTCDNQKSCMSNCSITSICEKPQEVCVAVWRKNDENITLETVCHDPKLPYHDFILEDAASPKCIMKEKKKPGETFFMCSCSSDECNDNIIFSEEYNTSNPDGGRHVQKSVNNDMIVTDNNGAVKFPQLCKFCDVRFSTCDNQKSCMSNCSITSICEKPQEVCVAVWRKNDENITLETVCHDPKLPYHDFILEDAASPKCIMKEKKKPGETFFMCSCSSDECNDNIIFSEEYNTSNPDHHHHHH

binding result [4]: no binding (tested: 100 nM)
fold higher IC50 than N-His (TβRII)^2 [5]: ~8 fold
IC50 [6]: 8.1 nM
B2: N-His TβRII monomer (receptor)
chain: APMAEGGGQNHHHHHHHHGGSFNPRIPPHVQKSVNNDMIVTDNNGAVKFPQLCKFCDVRFSTCDNQKSCMSNCSITSICEKPQEVCVAVWRKNDENITLETVCHDPKLPYHDFILEDAASPKCIMKEKKKPGETFFMCSCSSDECNDNIIFSEEYNTSNPD
notes: Single TβRII ectodomain with an N-terminal His tag, produced in 293 cells; also called monomeric N-His TβRII; N-His TβRII (293 cells)

IC50, neutralization of myostatin in A204 cells with (CAGA)12-luciferase reporter [1]: 0.1 nM
fold more potent than dimeric ActRIIb-Fc in neutralization of myostatin [1]: 10 fold
B3: (ActRIIB)^2 (designed binder)
chain: SGSEQKLISEEDLLGRGEAETRECIYYNANWELERTNQSGLERCEGEQDKRLHCYASWRNSSGTIELVKKGCWLDDFNCYDRQECVATEENPQVYFCCCEGNFCNERFTHLPEAGGPEVTYEPPPTAPTSGRGEAETRECIYYNANWELERTNQSGLERCEGEQDKRLHCYASWRNSSGTIELVKKGCWLDDFNCYDRQECVATEENPQVYFCCCEGNFCNERFTHLPEAGGPEVTYEPPPTAPTHHHHHH

IC50, neutralization assay in Mv1Lu luciferase reporter cells [2]: < 1 nM
IC50, neutralization of TGFβ1 (Mv1Lu luciferase reporter cells) [2]: 0.16 nM
IC50 [5]: 1.1 nM
IC50 [7]: 1.4 nM
B4: N-His (TβRII)^2 (designed binder)
chain: APMAEGGGQNHHHHHHHHGGSFNPRIPPHVQKSVNNDMIVTDNNGAVKFPQLCKFCDVRFSTCDNQKSCMSNCSITSICEKPQEVCVAVWRKNDENITLETVCHDPKLPYHDFILEDAASPKCIMKEKKKPGETFFMCSCSSDECNDNIIFSEEYNTSNPDIPPHVQKSVNNDMIVTDNNGAVKFPQLCKFCDVRFSTCDNQKSCMSNCSITSICEKPQEVCVAVWRKNDENITLETVCHDPKLPYHDFILEDAASPKCIMKEKKKPGETFFMCSCSSDECNDNIIFSEEYNTSNPD
notes: Two human TβRII ectodomains in tandem with the native 35-residue linker (IPP restored), an N-terminal 8xHis tag and a thrombin site; also called modified N-His (TβRII)^2; bivalent N-His (TβRII)^2

IC50, neutralization of TGFβ1 (Mv1Lu luciferase reporter cells) [2]: 0.04 nM
fold more potent than N-His (TβRII)^2 in neutralization of TGFβ1 [2]: 4 fold
IC50 [7]: 0.6 nM
B5: N-His (TβRIIb)^2 (designed binder)
chain: APMAEGGGQNHHHHHHHHGGSFNPRIPPHVQKSVNNDMIVTDNNGAVKFPQLCKFCDVRFSTCDNQKSCMSNCSITSICEKPQEVCVAVWRKNDENITLETVCHDPKLPYHDFILEDAASPKCIMKEKKKPGETFFMCSCSSDECNDNIIFSEEYNTSNPDIPPHVQKSDVEMEAQKDEIICPSCNRTAHPLRHINNDMIVTDNNGAVKFPQLCKFCDVRFSTCDNQKSCMSNCSITSICEKPQEVCVAVWRKNDENITLETVCHDPKLPYHDFILEDAASPKCIMKEKKKPGETFFMCSCSSDECNDNIIFSEEYNTSNPD
notes: TβRII ectodomain followed by a TβRIIb ectodomain, giving a 60-residue linker, with an N-terminal His tag; also called (TβRII)^2 trap having a 60 amino acid linker
